Experimental data as given in publication PMC5975642 (2018).

Assays:
MC4R [1] = target: T1, MC4R (Homo sapiens, UniProt P32245); assay: cell competition binding against biotinylated alpha-MSH
MC4R [2] = target: T1, MC4R; assay: cell saturation binding

T1 sequence (P32245 whole entry): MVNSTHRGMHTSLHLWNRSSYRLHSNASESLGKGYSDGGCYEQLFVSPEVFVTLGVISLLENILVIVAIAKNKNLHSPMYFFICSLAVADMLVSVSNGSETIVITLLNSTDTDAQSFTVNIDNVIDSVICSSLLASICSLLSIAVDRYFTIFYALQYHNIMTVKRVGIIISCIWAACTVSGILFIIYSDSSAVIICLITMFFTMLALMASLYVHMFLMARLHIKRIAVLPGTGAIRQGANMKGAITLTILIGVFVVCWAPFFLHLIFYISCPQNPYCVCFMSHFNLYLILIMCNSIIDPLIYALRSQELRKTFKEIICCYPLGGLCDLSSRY

Row | Ki (MC4R [1]) [nM] | Kd (MC4R [2]) [nM] | Binder
1 | 46.3 | – | LCN2 (protein) QDSTQNLIPAPSLLTVPLQPDFRSDQFRGRWYVVGLAGNAVQKKTEGSFTMYSTIYELQENNSYNVTSILVRDQDQGCRYWIRTFVPSSRAGQFTLGNMHRYPQVQSYNVQVATTDYNQFAMVFFRKTSENKQYFKITLYGRTKELSPELKERFTRFAKSLGLKDDNIIFSVPTDQCIDN
2 | – | 51.4 | LCN2 (protein, biotinylated LCN2) QDSTQNLIPAPSLLTVPLQPDFRSDQFRGRWYVVGLAGNAVQKKTEGSFTMYSTIYELQENNSYNVTSILVRDQDQGCRYWIRTFVPSSRAGQFTLGNMHRYPQVQSYNVQVATTDYNQFAMVFFRKTSENKQYFKITLYGRTKELSPELKERFTRFAKSLGLKDDNIIFSVPTDQCIDN
